Source: paper PMC3047542, “Structure of HsdS Subunit from Thermoanaerobacter tengcongensis Sheds Lights on Mechanism of Dynamic Opening and Closing of Type I Methyltransferase” (PLoS ONE, 2011)

Target: T1, TTE-HsdS (wild type), specificity subunit of the type I methyltransferase from Thermoanaerobacter … (Thermoanaerobacter tengcongensis, UniProt Q8R9Q6 1-398)
T1 construct: HsdS specificity subunit of Thermoanaerobacter tengcongensis, ORF TTE1545, wild type; 398 amino acids (Met1-Leu398), MW 46.5 kDa; Cloned into site 1 of pET-DUET (with N-terminal His tag); source: E. coli BL21 (DE3), co-expressed with TTE-HsdM (wild type or mutant) from pET-DUET; not shown: His tag, N-terminal, kept
T1 sequence (looked up): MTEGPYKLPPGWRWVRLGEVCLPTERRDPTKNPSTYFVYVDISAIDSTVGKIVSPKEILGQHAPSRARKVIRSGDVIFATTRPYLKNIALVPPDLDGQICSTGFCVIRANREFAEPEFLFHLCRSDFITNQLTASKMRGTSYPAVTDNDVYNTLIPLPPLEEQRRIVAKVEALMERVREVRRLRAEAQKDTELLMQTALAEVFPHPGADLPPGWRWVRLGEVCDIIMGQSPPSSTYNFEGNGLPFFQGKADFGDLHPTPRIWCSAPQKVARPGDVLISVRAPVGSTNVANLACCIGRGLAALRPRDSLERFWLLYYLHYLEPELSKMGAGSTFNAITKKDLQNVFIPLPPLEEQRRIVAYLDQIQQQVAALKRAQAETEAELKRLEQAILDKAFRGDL
Experiment: AUC; analytical ultracentrifugation of the co-purified wild-type TTE-HsdS/TTE-HsdM complex; molecular weight 165 kDa
Details: both partners purified

stoichiometry N: 2 HsdM per HsdS
B1: TTE-HsdM (wild type), modification subunit of the type I methyltransferase from Thermoanaerobacter tengcongensis (natural protein, UniProt Q8R9Q4 1-507, looked up)
chain: MNGPQTRESLANEIWRACDIMRRDNNCTGIMEYVEHLAWLLFLRFLDAQEEEWEAQAQIAGRPYTPIIDSEYRWRHWATKDWPADELLAFVHGRLIPYLRSLGGDPLRETIRSLFSERNVIVCASGYNLKDVIQIVNEINFHSQDDIFTVSQVYEELLRRLGNENRLAGEFYTPRPVVRFVVELVDPQIGEAVYDPACGTCGFLVEAYLWMKQKERTIEDHRILQERTFFGQEKKPVPAFLGLVNMMLHGVTVPRVMRRNTLEENIRNVSERFDVVVTNPPFGGTEGRHIQQNFPIQSNATELLFLQHIMKKLKPRDGARCGMVVPEGTLFRGGAFAEVKRDLLEQFNLHTVVSLPPGTFAPYSDVKTALIFFERPGPTKEIWYYELPLPEGLKKFSKGNPIQDEHFEEARKLWRGWDAYRKGLGPVEACLSERSWIVPVEEVKKRGYDLTARNPNRSGGEELPSPVEIVAGLLEKEREILSIMEELSELLENEKGNSSRKNDEEEE
notes: HsdM modification subunit of Thermoanaerobacter tengcongensis, ORF TTE1547, wild type; MW 58.5 kDa; Cloning site 2 of pET-DUET, without tag; Two copies in the M2S1 complex; Expressed alone it was insoluble
